{"source": "paper PMC6884320", "system": "Glu92", "assay": "kinetics"}
{"substance": "AlleyCat2 (second-round evolved AlleyCat) (M144R; other substitutions not stated (includes the AlleyCat mutation that gives Glu92))", "values": [{"measurement": "pKa", "setting": "not stated (Figure S14 not available), Ca2+-bound, turning over leflunomide", "value": "7.06 ± 0.02"}, {"measurement": "pKa", "setting": "turning over the Kemp elimination substrate, cited from earlier work", "value": "6.73 ± 0.03"}]}
